From PMC8217511 (2021)
Like-named read-outs stand apart in the source and are kept apart here.

B1: CrSAS-6_6HR, N-terminal domain and six heptad repeats of the coiled-coil of Chlamydomonas reinhardtii SAS-6 (domain or fragment)
chain: MPLLLDDGDPKAQTGFDLSTATTLFWRPVPVHVKQQDREDVLEELTFRILTGVAKQNHNLRILRIHISSDSDLFFLHTLEVSEEDFQSLKNDQGILVDFASFPGKIISLLEKCILAQPGDSPRFQAVLTIRGGESVFKIVEINDFKQLPHITLAFRPGNDSVVKQFLAFRLSEVKGTCHDLSDDLSRTRDDRDSMVAQLAQCRQQLAQLREQYDKHLLEVQAQAKT
B2: monobody MB_(CRS6)-15, purified (designed binder)
chain: GSVSSVPTKLEVVAATPTSLLISWDAPAVTVYLYVITYGETGGNSPVQEFEVPGSKSTATISGLKPGVDYTITVYASSKHSSRYASPISINYRT

Assays:
Experiment in all cases: ITC
MBCRS6-5 [1] = target: MBCRS6-5
MBCRS6-6 = target: MBCRS6-6
MBCRS6-3 = target: MBCRS6-3
MBCRS6-4 = target: MBCRS6-4
MBCRS6-2 = target: MBCRS6-2
MBCRS6-5 [2] = target: MBCRS6-5; remark: listed apart in the source
MBCRS6-12 = target: MBCRS6-12
[3] = target: B1

For B1, the Kd (MBCRS6-5 [1]) was 31 nM, the Kd (MBCRS6-6) was 570 nM and the Kd (MBCRS6-3) was 369 nM. It also gave a Kd (MBCRS6-4) of 316 nM, a Kd (MBCRS6-2) of 88.7 µM and a Kd (MBCRS6-5 [2]) of 31.1 nM. It also gave a Kd (MBCRS6-12) of 193 nM.

With B2 the Kd [3] was 468 nM.
